{
  "source": "the Human Domainome abundance scans (Beltran et al. 2025)",
  "parents": {"B1": {"name": "Mineralocorticoid receptor, residues 600 to 675; numbered along this chain, P08235 (parent)", "chain": "SKICLVCGDEASGCHYGVVTCGSCKVFFKRAVEGQHNYLCAGRNDCIIDKIRRKNCPACRLQKCLQAGMNLGARKS"}},
  "note": "± gives the uncertainty stated by the source.",
  "data": [
    {"variants_of": "B1", "test": "abundance fitness (aPCA) (normalised: wild type 0, dead -1); higher = more abundant; growth selection in yeast, the domain comes from the species named", "details": "Homo sapiens", "values": [
      {"variant": "SKICLVCGDEASGCHYGVVTCGSCKVFFKRAVEGQHNYLCAGRNKCIIDKIRRKNCPACRLQKCLQAGMNLGARKS", "note": "[D45K]", "abundance fitness": "-0.072 ± 0.047"},
      {"variant": "SKICLVCGDEASGCHYGVVTCGSCKVFFKRAVEGQHNYLCAGRNLCIIDKIRRKNCPACRLQKCLQAGMNLGARKS", "note": "[D45L]", "abundance fitness": "-0.094 ± 0.034"},
      {"variant": "SKICLVCGDEASGCHYGVVTCGSCKVFFKRAVEGQHNYLCAGRNMCIIDKIRRKNCPACRLQKCLQAGMNLGARKS", "note": "[D45M]", "abundance fitness": "-0.057 ± 0.054"},
      {"variant": "SKICLVCGDEASGCHYGVVTCGSCKVFFKRAVEGQHNYLCAGRNQCIIDKIRRKNCPACRLQKCLQAGMNLGARKS", "note": "[D45Q]", "abundance fitness": "0.016 ± 0.053"},
      {"variant": "SKICLVCGDEASGCHYGVVTCGSCKVFFKRAVEGQHNYLCAGRNFCIIDKIRRKNCPACRLQKCLQAGMNLGARKS", "note": "[D45F]", "abundance fitness": "-0.163 ± 0.046"},
      {"variant": "SKICLVCGDEASGCHYGVVTCGSCKVFFKRAVEGQHNYLCAGRNGCIIDKIRRKNCPACRLQKCLQAGMNLGARKS", "note": "[D45G]", "abundance fitness": "-0.079 ± 0.032"},
      {"variant": "SKICLVCGDEASGCHYGVVTCGSCKVFFKRAVEGQHNYLCAGRNACIIDKIRRKNCPACRLQKCLQAGMNLGARKS", "note": "[D45A]", "abundance fitness": "-0.067 ± 0.033"},
      {"variant": "SKICLVCGDEASGCHYGVVTCGSCKVFFKRAVEGQHNYLCAGRNPCIIDKIRRKNCPACRLQKCLQAGMNLGARKS", "note": "[D45P]", "abundance fitness": "-0.149 ± 0.046"},
      {"variant": "SKICLVCGDEASGCHYGVVTCGSCKVFFKRAVEGQHNYLCAGRNICIIDKIRRKNCPACRLQKCLQAGMNLGARKS", "note": "[D45I]", "abundance fitness": "-0.1 ± 0.041"},
      {"variant": "SKICLVCGDEASGCHYGVVTCGSCKVFFKRAVEGQHNYLCAGRNNCIIDKIRRKNCPACRLQKCLQAGMNLGARKS", "note": "[D45N]", "abundance fitness": "-0.045 ± 0.04"},
      {"variant": "SKICLVCGDEASGCHYGVVTCGSCKVFFKRAVEGQHNYLCAGRNECIIDKIRRKNCPACRLQKCLQAGMNLGARKS", "note": "[D45E]", "abundance fitness": "0.015 ± 0.042"},
      {"variant": "SKICLVCGDEASGCHYGVVTCGSCKVFFKRAVEGQHNYLCAGTNDCIIDKIRRKNCPACRLQKCLQAGMNLGARKS", "note": "[R43T]", "abundance fitness": "-0.001 ± 0.032"},
      {"variant": "SKICLVCGDEASGCHYGVVTCGSCKVFFKRAVEGQHNYLCAGSNDCIIDKIRRKNCPACRLQKCLQAGMNLGARKS", "note": "[R43S]", "abundance fitness": "-0.001 ± 0.027"},
      {"variant": "SKICLVCGDEASGCHYGVVTCGSCKVFFKRAVEGQHNYLCAGPNDCIIDKIRRKNCPACRLQKCLQAGMNLGARKS", "note": "[R43P]", "abundance fitness": "-0.138 ± 0.038"},
      {"variant": "SKICLVCGDEASGCHYGVVTCGSCKVFFKRAVEGQHNYLCAGNNDCIIDKIRRKNCPACRLQKCLQAGMNLGARKS", "note": "[R43N]", "abundance fitness": "-0.015 ± 0.036"},
      {"variant": "SKICLVCGDEASGCHYGVVTCGSCKVFFKRAVEGQHNYLCAGMNDCIIDKIRRKNCPACRLQKCLQAGMNLGARKS", "note": "[R43M]", "abundance fitness": "0.008 ± 0.048"},
      {"variant": "SKICLVCGDEASGCHYGVVTCGSCKVFFKRAVEGQHNYLCAGWNDCIIDKIRRKNCPACRLQKCLQAGMNLGARKS", "note": "[R43W]", "abundance fitness": "-0.067 ± 0.04"},
      {"variant": "SKICLVCGDEASGCHYGVVTCGSCKVFFKRAVEGQHNYLCAGVNDCIIDKIRRKNCPACRLQKCLQAGMNLGARKS", "note": "[R43V]", "abundance fitness": "-0.038 ± 0.03"},
      {"variant": "SKICLVCGDEASGCHYGVVTCGSCKVFFKRAVEGQHNYLCAGQNDCIIDKIRRKNCPACRLQKCLQAGMNLGARKS", "note": "[R43Q]", "abundance fitness": "-0.067 ± 0.043"},
      {"variant": "SKICLVCGDEASGCHYGVVTCGSCKVFFKRAVEGQHNYLCAGRVDCIIDKIRRKNCPACRLQKCLQAGMNLGARKS", "note": "[N44V]", "abundance fitness": "-0.246 ± 0.042"},
      {"variant": "SKICLVCGDEASGCHYGVVTCGSCKVFFKRAVEGQHNYLCAGRWDCIIDKIRRKNCPACRLQKCLQAGMNLGARKS", "note": "[N44W]", "abundance fitness": "-0.089 ± 0.041"},
      {"variant": "SKICLVCGDEASGCHYGVVTCGSCKVFFKRAVEGQHNYLCAGRHDCIIDKIRRKNCPACRLQKCLQAGMNLGARKS", "note": "[N44H]", "abundance fitness": "-0.045 ± 0.08"},
      {"variant": "SKICLVCGDEASGCHYGVVTCGSCKVFFKRAVEGQHNYLCAGRKDCIIDKIRRKNCPACRLQKCLQAGMNLGARKS", "note": "[N44K]", "abundance fitness": "0.016 ± 0.049"},
      {"variant": "SKICLVCGDEASGCHYGVVTCGSCKVFFKRAVEGQHNYLCAGRFDCIIDKIRRKNCPACRLQKCLQAGMNLGARKS", "note": "[N44F]", "abundance fitness": "-0.075 ± 0.067"},
      {"variant": "SKICLVCGDEASGCHYGVVTCGSCKVFFKRAVEGQHNYLCAGRTDCIIDKIRRKNCPACRLQKCLQAGMNLGARKS", "note": "[N44T]", "abundance fitness": "-0.054 ± 0.052"},
      {"variant": "SKICLVCGDEASGCHYGVVTCGSCKVFFKRAVEGQHNYLCAGRPDCIIDKIRRKNCPACRLQKCLQAGMNLGARKS", "note": "[N44P]", "abundance fitness": "-0.391 ± 0.055"},
      {"variant": "SKICLVCGDEASGCHYGVVTCGSCKVFFKRAVEGQHNYLCAGRSDCIIDKIRRKNCPACRLQKCLQAGMNLGARKS", "note": "[N44S]", "abundance fitness": "-0.02 ± 0.043"},
      {"variant": "SKICLVCGDEASGCHYGVVTCGSCKVFFKRAVEGQHNYLCAGRGDCIIDKIRRKNCPACRLQKCLQAGMNLGARKS", "note": "[N44G]", "abundance fitness": "-0.004 ± 0.036"},
      {"variant": "SKICLVCGDEASGCHYGVVTCGSCKVFFKRAVEGQHNYLCAGRQDCIIDKIRRKNCPACRLQKCLQAGMNLGARKS", "note": "[N44Q]", "abundance fitness": "-0.038 ± 0.049"},
      {"variant": "SKICLVCGDEASGCHYGVVTCGSCKVFFKRAVEGQHNYLCAGRADCIIDKIRRKNCPACRLQKCLQAGMNLGARKS", "note": "[N44A]", "abundance fitness": "-0.016 ± 0.041"},
      {"variant": "SKICLVCGDEASGCHYGVVTCGSCKVFFKRAVEGQHNYLCAGRYDCIIDKIRRKNCPACRLQKCLQAGMNLGARKS", "note": "[N44Y]", "abundance fitness": "-0.049 ± 0.088"},
      {"variant": "SKICLVCGDEASGCHYGVVTCGSCKVFFKRAVEGQHNYLCAGRMDCIIDKIRRKNCPACRLQKCLQAGMNLGARKS", "note": "[N44M]", "abundance fitness": "-0.081 ± 0.049"},
      {"variant": "SKICLVCGDEASGCHYGVVTCGSCKVFFKRAVEGQHNYLCAGRIDCIIDKIRRKNCPACRLQKCLQAGMNLGARKS", "note": "[N44I]", "abundance fitness": "-0.342 ± 0.099"},
      {"variant": "SKICLVCGDEASGCHYGVVTCGSCKVFFKRAVEGQHNYLCAGREDCIIDKIRRKNCPACRLQKCLQAGMNLGARKS", "note": "[N44E]", "abundance fitness": "-0.042 ± 0.052"},
      {"variant": "SKICLVCGDEASGCHYGVVTCGSCKVFFKRAVEGQHNYLCAGRLDCIIDKIRRKNCPACRLQKCLQAGMNLGARKS", "note": "[N44L]", "abundance fitness": "-0.16 ± 0.038"},
      {"variant": "SKICLVCGDEASGCHYGVVTCGSCKVFFKRAVEGQHNYLCAGRDDCIIDKIRRKNCPACRLQKCLQAGMNLGARKS", "note": "[N44D]", "abundance fitness": "0.071 ± 0.062"}
    ]}
  ]
}
